This note sets out measurements from article PMC5415106.

B1: GST-Dpb11-wild-type [budding yeast] / PKA-Sld2T84D [modified: 32P-phosphate on the artificial PKA site; 32P-phosphate on the artificial PKA site] [budding yeast] (parent)
chain 1: MKPFQGITFCPTAINNEILAKKISKKIIKLGGIFSKDLTRQVNVLVVGSTTNTNKFKFAVKHRFDIIFIDIQAIDDIYQLWLSGENILPDSNTATMTGSTYEMLKILYRRFSFKYLHNFNIFIGRITDTNITSIDSLVRSIKKLGCSSYNYQNFVIKDTSSHNDDDDQGQNGQISIFVTDTLLGARVNAAIEQNIPIVHFKWILDCQKRSALLPYDPYYLLPNIKDLPYDSIGSNSCDCWDKINTTFPTNIDAQSSLQRQQSSSTLTPSLPKTSSLLNKFKPKGEKIWDKAMSLQQHSKTNFSVLGQSPLSINNKQEDLSDNSTLIFKNCAFIIHHIFPGNHRSILTKIVVQNGGKIETSYLSGIYDHSYYIIPSNKALDSFNDLPEIIDDNDGIVTEFFIERCLYYQKLLHPIDLWSKPFLSTIEFQVSSSSKLLHHEFSSSPFLNVTITGFSGVELLHLTKVLNLLKPMGINYVEYLNKSTDILLINLAALPSIPKTHPLWSNEFSDLFTQFCINNNNDDPGDNNRKDFQNNSILRNSMKRKIEYIKKFHSIPVVTPAFIFKLLSAASGENNEIFLNNIKWCIICPRGHKDDFKCKIKKPYYTSISSEKKYQNNDPKIDKTILLKRNNSSLSEHSMKDTKNELLQKIRETDSGRKKRSVSSSIMDVSSERQMPDTKRIKLESLPKNFVPKQIKRTTSWGTIMSENVPTEQPTAISNPEEIPRTEEVSHTQVTYGSIQDKKRTASLEKPMRRQTRNQTKELDS
chain 2: MYSFELDKLKIELKTWEHDFIDKNKREPTRDDIKSLRTVRQMYKQYSTLKKKQSLQRQKVDTQESVELPAHKKDHDEVVEIGPDPQVYGKAISIFDMNLSPIKPIYMTFTNNIDVNNDNSKTISNESSPRKTILLKSSPADRTLVAEPISSVKRQLNFQMLNASSTRTPTSSPCKNRNGKLVEIKKCSPTINPPLESGKPSGYYGPNSPLKLDEENIHLNISLNSSTKRRLQIAYPSLQKTPSKDQADISTSFSPSPLIRRPLTKSLIELAREHTEIVKEFGVLQEEDIEEEEEGEEGENGYDEKNHEDDFGLEDELIRPKVVKDIFQEDDDNDDSQAREDTFIRKRPKRRKVIRRLRDNDPETETAGFERDVHKELVKLKRRKVAEFLGSTSQISDTEFEHDPEASSGVVSSEQKPTAKRKGRKKYNLVSNNFRRLKLPKKNRFSNGRWGRR
B2: GST-Dpb11-wild-type [budding yeast] / Cdc45 (purified, radiolabelled) [budding yeast] (parent)
chain 1: B1 chain 1
chain 2: MYYGISQFSEAYNKILRNSSSHSSCQLVIFVSCLNIDALCATKMLSLLFKKQLVQSQIVPIFGYSELRRHYSQLDDNINSLLLVGFGGVIDLEAFLEIDPQEYVIDTDEKSGEQSFRRDIYVLDAHRPWNLDNIFGSQIIQCFDDGTVDDTLGEQKEAYYKLLELDEESGDDELSGDENDNNGGDDEATDADEVTDEDEEDEDETISNKRGNSSIGPNDLSKRKQRKKQIHEYEGVLEEYYSQGTTVVNSISAQIYSLLSAIGETNLSNLWLNILGTTSLDIAYAQVYNRLYPLLQDEVKRLTPSSRNSVKTPDTLTLNIQPDYYLFLLRHSSLYDSFYYSNYVNAKLSLWNENGKKRLHKMFARMGIPLSTAQETWLYMDHSIKRELGIIFDKNLDRYGLQDIIRDGFVRTLGYRGSISASEFVEALTALLEVGNSTDKDSVKINNDNNDDTDGEEEEDNSAQKLTNLRKRWVSNFWLSWDALDDRKVELLNRGIQLAQDLQRAIFNTGVAILEKKLIKHLRIYRLCVLQDGPDLDLYRNPLTLLRLGNWLIECCAESEDKQLLPMVLASIDENTDTYLVAGLTPRYPRGLDTIHTKKPILNNFSMAFQQITAETDAKVRIDNFESSIIEIRREDLSPFLEKLTLSGLL

Assay [1] covers variants of B1. In words: GST pull-down, phosphorimaging. To be noted: with PKA-Sld2T84D [modified: 32P-phosphate on the artificial PKA site.
Assay [2] covers variants of B2. Nature of the assay: GST pull-down, phosphorimaging. The conditions noted are these: with Cdc45 (purified, radiolabelled) [budding yeast], 10 pmoles GST-Dpb11, read off a plot.

In the case of chain 1 K463E K469E R538E K549E, the response stood at 0.3 pmol in assay [1] (10 pmoles GST-Dpb11, 1 pmole Sld2T84D input, parent: 0.28, read off a plot); 0.72 pmol in assay [1] (10 pmoles GST-Dpb11, 3 pmoles Sld2T84D input, parent: 0.64, read off a plot); 1.7 pmol in assay [1] (10 pmoles GST-Dpb11, 10 pmoles Sld2T84D input, parent: 1.6, read off a plot).

For the variant chain 1 K463E K469E R538E K549E, the response in assay [2] (1 pmole Cdc45 input, parent: 0.11) was found to be 0.1 pmol; in assay [2] (3 pmoles Cdc45 input, parent: 0.44) it was 0.42 pmol; in assay [2] (10 pmoles Cdc45 input, parent: 0.89) it was 0.85 pmol.
